Measurements as given in paper PMC6737238.

How the values were obtained:
Assay in all cases: EMSA
Conditions in all cases: EMSA: 0.4 nM biotinylated probe, 10 mM Tris-HCl pH 7.5, 1 mM DTT, 10 mM MgCl2, 400 mM KCl, 0.05% NP-40, 70C 10 min; 5% PAGE, 0.5x TBE
[1] = target: T1, TkTrpY (TK1227 protein) (Thermococcus kodakarensis KOD1) (UniProt Q5JGI5)
T1 sequence: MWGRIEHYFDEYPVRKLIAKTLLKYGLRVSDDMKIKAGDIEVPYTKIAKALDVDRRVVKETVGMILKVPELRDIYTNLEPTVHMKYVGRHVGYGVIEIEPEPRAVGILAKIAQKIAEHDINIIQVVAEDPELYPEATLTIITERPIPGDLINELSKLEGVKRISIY

[2] = target: T2, TK0063 protein (Thermococcus kodakarensis KOD1) (UniProt Q5JEG2)
T2 sequence: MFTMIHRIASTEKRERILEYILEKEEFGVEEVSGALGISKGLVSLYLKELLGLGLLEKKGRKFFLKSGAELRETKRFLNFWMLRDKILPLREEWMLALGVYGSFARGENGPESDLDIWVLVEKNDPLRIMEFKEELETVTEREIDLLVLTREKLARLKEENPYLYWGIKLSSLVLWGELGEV

[3] = target: T3, TK0142 protein (Thermococcus kodakarensis KOD1) (UniProt Q5JFH4)
T3 sequence: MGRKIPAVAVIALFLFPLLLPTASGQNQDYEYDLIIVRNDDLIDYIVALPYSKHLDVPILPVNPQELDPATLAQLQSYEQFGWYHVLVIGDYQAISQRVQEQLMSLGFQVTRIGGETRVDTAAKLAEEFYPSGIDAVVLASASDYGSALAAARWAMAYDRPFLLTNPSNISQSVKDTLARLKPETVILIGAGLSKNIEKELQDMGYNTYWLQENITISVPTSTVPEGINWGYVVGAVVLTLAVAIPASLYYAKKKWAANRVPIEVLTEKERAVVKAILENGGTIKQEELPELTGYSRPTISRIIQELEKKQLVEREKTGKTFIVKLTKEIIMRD

[4] = target: T4, TK0169 protein (Thermococcus kodakarensis KOD1) (UniProt Q5JFL2)
T4 sequence: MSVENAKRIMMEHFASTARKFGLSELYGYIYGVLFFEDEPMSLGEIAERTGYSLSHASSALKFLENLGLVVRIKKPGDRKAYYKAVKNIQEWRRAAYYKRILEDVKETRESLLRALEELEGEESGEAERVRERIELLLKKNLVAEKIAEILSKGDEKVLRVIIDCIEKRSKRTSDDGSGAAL

[5] = target: T5, TK0271 protein (IVT) (Thermococcus kodakarensis KOD1) (UniProt Q5JFW7)
T5 sequence: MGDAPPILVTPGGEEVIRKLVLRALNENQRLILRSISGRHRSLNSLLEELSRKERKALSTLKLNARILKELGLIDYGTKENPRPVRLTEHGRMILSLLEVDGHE

[6] = target: T6, TK0888 protein (Thermococcus kodakarensis KOD1) (UniProt Q5JI32)
T6 sequence: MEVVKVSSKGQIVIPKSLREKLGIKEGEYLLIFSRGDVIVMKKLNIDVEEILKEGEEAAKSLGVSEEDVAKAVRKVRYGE

[7] = target: T7, TK1210 protein (Thermococcus kodakarensis KOD1) (UniProt Q5JGG7)
T7 sequence: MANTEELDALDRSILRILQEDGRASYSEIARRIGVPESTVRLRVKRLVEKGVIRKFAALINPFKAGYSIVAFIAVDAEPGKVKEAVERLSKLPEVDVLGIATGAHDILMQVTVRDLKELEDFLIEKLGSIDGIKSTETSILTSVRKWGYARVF

[8] = target: T8, TK1227 protein (IVT) (Thermococcus kodakarensis KOD1) (UniProt Q5JGI5)
T8 sequence: T1 sequence

[9] = target: T9, TK1272 protein (Thermococcus kodakarensis KOD1) (UniProt Q5JGN9)
T9 sequence: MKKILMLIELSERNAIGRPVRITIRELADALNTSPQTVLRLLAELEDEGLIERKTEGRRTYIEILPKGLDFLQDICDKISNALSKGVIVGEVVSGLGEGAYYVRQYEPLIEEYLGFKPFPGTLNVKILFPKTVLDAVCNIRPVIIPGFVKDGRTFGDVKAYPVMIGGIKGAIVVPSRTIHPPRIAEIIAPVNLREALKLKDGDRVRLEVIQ

[10] = target: T10, TK1339 protein (Thermococcus kodakarensis KOD1) (UniProt Q5JGU9)
T10 sequence: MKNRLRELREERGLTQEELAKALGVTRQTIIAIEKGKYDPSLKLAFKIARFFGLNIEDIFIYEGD

[11] = target: T11, TK1489 protein (Thermococcus kodakarensis KOD1) (UniProt Q5JJD9)
T11 sequence: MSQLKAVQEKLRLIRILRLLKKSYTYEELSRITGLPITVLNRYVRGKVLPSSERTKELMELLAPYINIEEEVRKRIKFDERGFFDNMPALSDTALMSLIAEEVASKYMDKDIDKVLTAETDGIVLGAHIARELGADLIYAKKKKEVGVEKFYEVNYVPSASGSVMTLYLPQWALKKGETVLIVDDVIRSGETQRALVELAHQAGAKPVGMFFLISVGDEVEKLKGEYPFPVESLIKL

[12] = target: T12, TK1881 protein (Thermococcus kodakarensis KOD1) (UniProt Q5JEN6)
T12 sequence: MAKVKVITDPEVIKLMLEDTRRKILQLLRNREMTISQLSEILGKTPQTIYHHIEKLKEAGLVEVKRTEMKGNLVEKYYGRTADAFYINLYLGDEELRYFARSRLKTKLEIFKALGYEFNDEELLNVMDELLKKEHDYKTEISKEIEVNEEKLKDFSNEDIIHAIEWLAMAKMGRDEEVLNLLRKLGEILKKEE

[13] = target: T13, TK1955 protein (Thermococcus kodakarensis KOD1) (UniProt Q5JDN7)
T13 sequence: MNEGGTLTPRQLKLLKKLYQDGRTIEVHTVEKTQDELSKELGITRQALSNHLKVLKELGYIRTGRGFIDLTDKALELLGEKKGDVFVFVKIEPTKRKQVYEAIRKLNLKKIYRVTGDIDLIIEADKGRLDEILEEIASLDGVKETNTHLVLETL

[14] = target: T14, TK2190 protein (Thermococcus kodakarensis KOD1) (UniProt Q5JHK1)
T14 sequence: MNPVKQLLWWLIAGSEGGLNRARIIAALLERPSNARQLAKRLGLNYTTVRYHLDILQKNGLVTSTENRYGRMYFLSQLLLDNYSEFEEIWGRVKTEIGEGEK

[15] = target: T15, TK2229 protein (Thermococcus kodakarensis KOD1) (UniProt Q5JHP9)
T15 sequence: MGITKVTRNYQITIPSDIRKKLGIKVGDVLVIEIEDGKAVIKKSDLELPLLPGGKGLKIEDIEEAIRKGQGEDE

[16] = target: T16, Tar (TK0271 protein) (Thermococcus kodakarensis KOD1) (UniProt Q5JFW7)
T16 sequence: T5 sequence

Substance: GACCACCCGCTCAGAAAAGGACGTCGTAAGGACAAGTACACCGTTATTCTCTACCAGGCAACCGTACGAACTATTCAAAGTTCACCCTTTGAAGAAAGGCAAACATTTTTGTTTAACAAAAACACTTTTGTTAGCGCAAACTATTTAAACAACCGTTGTATATCACAGATGGTGATATATATGGTTGAGC (double strand) [TK0705 (GAPN) promoter]
- binding [1]: binds more weakly

Substance: GACTTCGGCTTTCTGATGGTCGGAAGGGACGTGGAAAATGCGAACGAAGCGATAAAAATGTTTTTGGAGGAGGTTAAACGAGGGCCTTAACGCCCTCTCGGTCTTTTTAGCTACTCCCTTGGACACCTCAGCATGTCCAAAGCCTTATATCCCAACTCCCCCTTTTGACACCGGTGAGTTCAAATGGGTGATGGTTTTTGGATTAAGC (double strand) [trp promoter (TK0252)]
- binding [2]: binds
- binding [3]: binds
- binding [4]: binds
- binding [5]: binds
- binding [6]: binds
- binding [7]: binds
- binding [8]: binds
- binding [9]: binds
- binding [10]: binds
- binding [11]: binds
- binding [12]: binds
- binding [13]: binds
- binding [14]: binds
- binding [15]: binds
- Kd [16]: 5 nM
- binding [16]: binds

Substance: GCTACTTCCATCCTCCTCTGGAGAAGCTGGAGAATTTCCCGGTCAATCTCGTCTATCCTTCTCCTCAGAATGGCAAGTTCTACAAGATCAGGACTCGATATTGGCGGGACATCACCGTCACCGTTTTGAGCTTGAAGTTCGAAGATTTAACCTTTTGGACAGGTTCACCTAACCATCCCCTCCCAGGCCCTCCTCCTCAGGAG (double strand) [tyr-phe promoter (TK0261)]
- Kd [16]: binds

Substance: GGACGCCTGTTTGTCAAATCGACAAAAATACGCCAGTTTTCACACTGATTTTTAACAGATTGATGAGATGGACGTCCTTTTTTGGGAATTGGACAGGCAAACCTGGCGAATAGTTTAAATAGGGTTGCTGATTCATCCGTCTCCGGTGATCGGTGATGTCCCGCCAATTTATGAAGTCTTCAAACCAGGTGATGTCCCGCCAATGGGTGATGC (double strand) [aro promoter (TK0271)]
- Kd [16]: binds

Substance: TGCGGGCCATCATCATCACCCAATACCTTTGATGTGGGTAAAACATGGGGAGGTTATATACTTTATGTCCCTCAGGGACTTGGCAATGAAACTTTTAAGAATTTCGTCCGATTCTAGAATCAAACTGTAAAAGACCCATATTTTACAATAGCAGCCAGGAAAGAATATTAAACAGAAAATAAGGGATTAAATGCCGTTATCCCCA (double strand) [TK1899 (radA) promoter]
- binding [16]: binds more weakly

Substance: trp promoter (TK0252)
- Kd [16]: 5 nM
